Experimental data from PMC6150531.

Molecular target: ALG-2 (human (endogenous in HeLa)) (UniProt O75340)
Chain of UniProt O75340 (O75340 whole entry): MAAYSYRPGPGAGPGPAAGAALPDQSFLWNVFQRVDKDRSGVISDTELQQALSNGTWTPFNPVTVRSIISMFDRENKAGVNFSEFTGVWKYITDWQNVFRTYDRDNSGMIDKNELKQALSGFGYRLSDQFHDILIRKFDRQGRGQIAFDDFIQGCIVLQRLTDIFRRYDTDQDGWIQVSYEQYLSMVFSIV

QGPPYPTYPGYPGYCQ [ALIX peptide]
viability of EGFP-expressing HeLa cells 1 hour after 50 uM digitonin in the presence of 10 uM peptide (about 60% without the peptide): 37 % viability
